# Measured values taken from patent US20200199241A1 (Chugai, published 2020).
# Residue numbers refer to the chain shown, from its start. In names and notes the source's numbering stands.
# T1: FcγRIIb (human, UniProt P31994 43-217, limits assumed)
# T1 construct: SPR analyte; also called FcγIIB; CD32
# T1 sequence: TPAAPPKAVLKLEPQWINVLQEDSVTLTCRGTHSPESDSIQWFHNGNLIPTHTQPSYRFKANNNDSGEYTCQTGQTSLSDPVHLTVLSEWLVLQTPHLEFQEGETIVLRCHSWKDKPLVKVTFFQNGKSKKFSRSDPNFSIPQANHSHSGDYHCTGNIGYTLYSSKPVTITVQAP
# T2: human FcγRIIa type R (human, UniProt P12318 36-217)
# T2 construct: also called FcγRIIaR; FcγRIIa(R)
# T2 chain: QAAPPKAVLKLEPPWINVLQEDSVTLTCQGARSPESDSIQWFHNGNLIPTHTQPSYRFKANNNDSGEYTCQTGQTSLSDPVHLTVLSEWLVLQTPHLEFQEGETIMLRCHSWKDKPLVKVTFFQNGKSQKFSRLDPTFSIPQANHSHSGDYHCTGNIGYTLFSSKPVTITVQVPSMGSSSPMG
# T3: FcγRIIa type H (human, UniProt P12318 36-217)
# T3 construct: SPR analyte; also called FcγRIIaH
# T3 sequence: T2 chain with R133H
# T4: FcγRIIa type R (human, UniProt P12318 36-217)
# T4 construct: SPR analyte; also called FcγRIIaR; FcγRIIa(R)
# T4 chain: T2 chain
# T5: human FcγRIIb (human, UniProt P31994 43-217, limits assumed)
# T5 construct: also called FcγIIB
# T5 sequence: T1 sequence
# T6: human FcγRIIa(R) (human, UniProt P12318 36-217)
# T6 construct: also called hFcgRIIa(R); FcγRIIa type R
# T6 chain: T2 chain
# T7: human FcγRIIa(H) (human, UniProt P12318 36-217)
# T7 construct: also called hFcgRIIa(H); FcγRIIa type H
# T7 sequence: T2 chain with R133H
# T8: human FcγRIIb (human, UniProt P31994 43-217, limits assumed)
# T8 construct: also called hFcgRIIb; FcγIIB
# T8 sequence: T1 sequence
# B1: IL6R-BP150/IL6R-L (antibody, human IgG1)
# heavy: QVQLQESGPGLVKPSETLSLTCAVSGHSISHDHAWSWVRQPPGEGLEWIGFISYSGITNYNPSLQGRVTISRDNSKNTLYLQMNSLRAEDTAVYYCARSLARTTAMDYWGEGTLVTVSSASTKGPSVFPLAPSSKSTSGGTAALGCLVKDYFPEPVTVSWNSGALTSGVHTFPAVLQSSGLYSLSSVVTVPSSSLGTQTYICNVNHKPSNTKVDKKVEPKSCDKTHTCPPCPAPEYLGDDSVFLFPPKPKDTLMISRTPEVTCVVVDVSHEDPEVKFNWYVDGVEVHNAKTKPREEQYNSTYRVVSVLTVLHQDWLNGKEYKCKVSNAALPRPIEKTISKAKGQPREPQVYTLPPSRDELTKNQVSLTCLVKGFYPSDIAVEWESNGQPENNYKTTPPVLDSDGSFFLYSKLTVDKSRWQQGNVFSCSVMHEALHNHYTQESLSLSP
# light: DIQMTQSPSSLSASVGDRVTITCRASQDISSYLNWYQQKPGKAPKLLIYYTSRLHSGVPSRFSGSGSGTDFTFTISSLQPEDIATYYCQQGNTLPYTFGQGTKVEIK
# B2: IL6R-BP177/IL6R-L (antibody, human IgG1)
# heavy: B1 heavy with E235D, P273G, A328D, R332K
# light: B1 light
# B3: IL6R-BP151/IL6R-L (antibody, human IgG1)
# heavy: B1 heavy with E235D
# light: B1 light
# B4: IL6R-BP082/IL6R-L (antibody, human IgG1)
# heavy: B1 heavy with E235D, Y236L, D239G, A328K, R332K
# light: B1 light
# B5: IL6R-PD080/IL6R-L (antibody)
# chain 1: B1 heavy with Y236L, M254Y, A328K, R332A, N436Y, E441K
# chain 2: not shown
# B6: IL6R-F652/IL6R-L (antibody, human IgG1)
# heavy: B1 heavy with Y236L, D239G, M254Y, A328K, R332A, N436Y, E441K
# light: B1 light
# notes: IL6R-F11 with P238D (EU numbering)
# B7: antibody with VH3-IgG1-F938 heavy chain and L(WT)-CK light chain (antibody)
# heavy: QVQLQESGPGLVKPSETLSLTCAVSGHSISHDHAWSWVRQPPGEGLEWIGFISYSGITNYNPSLQGRVTISRDNSKNTLYLQMNSLRAEDTAVYYCARSLARTTAMDYWGEGTLVTVSSASTKGPSVFPLAPSSKSTSGGTAALGCLVKDYFPEPVTVSWNSGALTSGVHTFPAVLQSSGLYSLSSVVTVPSSSLGTQTYICNVNHKPSNTKVDKKVEPKSCDKTHTCPPCPAPELKGGPKVFLFPPKPKDTLYISRTPEVTCVVVDVSHEDPEVKFNWYVDGVEVHNAKTKPREEQYNSTYRVVSVLTVLHQDWLNGKEYKCKVSNKALPAPIEKTISKAKGQPREPQVYTLPPSRDELTKNQVSLTCLVKGFYPSDIAVEWESNGQPENNYKTTPPVLDSDGSFFLYSKLTVDKSRWQQGNVFSCSVMHEALHYHVTQKSLSLSP
# light: not shown
# notes: L235K/S239K on VH3-IgG1-F890; copies: 2 + 2
# B8: antibody with VH3-IgG1-F1356 heavy chain and L(WT)-CK light chain (antibody)
# heavy: B7 heavy with K237L, G238R, K241S, L330R
# light: not shown
# notes: G236R/L328R on VH3-IgG1-F890; copies: 2 + 2
# B9: antibody with VH3-IgG1-F1315 heavy chain and L(WT)-CK light chain (antibody)
# heavy: B7 heavy with K237L, G239K
# light: not shown
# notes: G237K/S239K on VH3-IgG1-F890; copies: 2 + 2
# B10: antibody with VH3-IgG1-F1333 heavy chain and L(WT)-CK light chain (antibody)
# heavy: B7 heavy with K237R, G238R
# light: not shown
# notes: L235R/G236R/S239K on VH3-IgG1-F890; copies: 2 + 2
# B11: antibody with VH3-IgG1-F1316 heavy chain and L(WT)-CK light chain (antibody)
# heavy: B7 heavy with K237L, G239R
# light: not shown
# notes: G237R/S239K on VH3-IgG1-F890; copies: 2 + 2
# B12: antibody with VH3-IgG1-F1325 heavy chain and L(WT)-CK light chain (antibody)
# heavy: B7 heavy with L236A, K237A, K241S, N299A
# light: not shown
# notes: L234A/L235A/N297A on VH3-IgG1-F890; copies: 2 + 2
# B13: antibody with VH3-IgG1-F1318 heavy chain and L(WT)-CK light chain (antibody)
# heavy: B7 heavy with K237L, P331R
# light: not shown
# notes: S239K/P329R on VH3-IgG1-F890; copies: 2 + 2
# B14: antibody with VH3-IgG1-F1317 heavy chain and L(WT)-CK light chain (antibody)
# heavy: B7 heavy with K237L, P331K
# light: not shown
# notes: S239K/P329K on VH3-IgG1-F890; copies: 2 + 2
# Molecular target: T1, FcγRIIb
# Assay: ratio of SPR KDs: KD for FcγRIIaH over KD for FcγRIIb
# From the text: (§1) Furthermore, KD(IIaR)/KD(IIb) and KD(IIaH)/KD(IIb) in the table respectively represent the value obtained by dividing the KD value of each variant for FcγRIIaR by the KD value of each variant for FcγRIIb, and the value obtained by dividing the KD value of each variant for FcγRIIaH by the KD value of each variant for FcγRIIb.
row,Binder,KD(IIaH)/KD(IIb)
1,B1,109
2,B2,159
3,B3,118
4,B4,69

# Molecular target: T1, FcγRIIb
# Assay: ratio of SPR KDs; reference IL6R-B3/IL6R-L
row,Binder,KD(IIb) of the parent polypeptide/KD(IIb) of altered polypeptide
1,B1,99
2,B2,60
3,B3,77.4
4,B4,5.8

# Molecular target: T2, human FcγRIIa type R
# Assay: SPR (Biacore), antibody captured, FcγR as analyte
row,Binder,Kd [nM]
1,B5,21000

# Molecular target: T1, FcγRIIb
# Assay: ratio of SPR KDs: KD for FcγRIIaR over KD for FcγRIIb
# From the text: as §1
row,Binder,KD(IIaR)/KD(IIb)
1,B1,17.7
2,B2,13.8
3,B3,16.9
4,B4,22.8

# Molecular target: T9, FcγRIa (human, UniProt P12314 16-292, limits assumed)
# T9 construct: SPR analyte; also called CD64
# Assay: SPR (Biacore), antibody captured, FcγR analyte
# T9 sequence (P12314 16-292 limits assumed): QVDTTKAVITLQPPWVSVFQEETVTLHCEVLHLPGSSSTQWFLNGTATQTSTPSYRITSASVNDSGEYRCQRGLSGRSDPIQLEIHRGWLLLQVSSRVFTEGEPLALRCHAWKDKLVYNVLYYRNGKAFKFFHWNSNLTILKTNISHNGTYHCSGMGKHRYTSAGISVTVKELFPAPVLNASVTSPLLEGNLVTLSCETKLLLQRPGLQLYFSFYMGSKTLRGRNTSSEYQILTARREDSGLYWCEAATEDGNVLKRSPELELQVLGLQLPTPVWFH
row,Binder,Kd [nM]
1,B1,320
2,B2,33
3,B3,84
4,B4,18

# Molecular target: T1, FcγRIIb
# Assay: SPR (Biacore), antibody captured, FcγR analyte
row,Binder,Kd [nM]
1,B1,31
2,B2,52
3,B3,40
4,B4,540

# Molecular target: T3, FcγRIIa type H
# Assay: SPR (Biacore), antibody captured, FcγR analyte
row,Binder,Kd [nM]
1,B1,3400
2,B2,8200
3,B3,4700
4,B4,37000

# Molecular target: T4, FcγRIIa type R
# Assay: SPR (Biacore), antibody captured, FcγR analyte
row,Binder,Kd [nM]
1,B1,550
2,B2,710
3,B3,670
4,B4,12000

# Molecular target: T10, FcγRIIIa type V (human, UniProt P08637 17-208, limits assumed)
# T10 construct: SPR analyte; allotype V158 was used here; also called FcγRIIIaV; FcγRIIIa(V)
# Assay: SPR (Biacore), antibody captured, FcγR analyte
# T10 sequence (P08637 other isoform, or with tags, fused parts or gaps limits assumed): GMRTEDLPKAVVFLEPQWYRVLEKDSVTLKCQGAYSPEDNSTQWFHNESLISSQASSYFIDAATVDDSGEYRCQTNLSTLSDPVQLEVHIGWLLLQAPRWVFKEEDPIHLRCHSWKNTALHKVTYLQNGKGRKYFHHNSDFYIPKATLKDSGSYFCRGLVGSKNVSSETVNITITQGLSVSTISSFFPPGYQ
row,Binder,Kd [nM]
1,B1,34000
2,B2,37000
3,B3,31000
4,B4,81000

# Molecular target: T2, human FcγRIIa type R
# Assay: SPR (Biacore), binding amount relative to IL6R-F652/IL6R-L = 100
row,Binder,relative binding activity
1,B6,100

# Molecular target: T5, human FcγRIIb
# Assay: as above
row,Binder,relative binding activity
1,B6,100

# Molecular target: T4, FcγRIIa type R
# Assay: ratio of SPR KDs; stronger receptor here FcγRIIaR; reference IL6R-B3/IL6R-L (FcγRIIaH)
# From the text: Furthermore, KD(IIaR)/KD(IIb) and KD(IIaH)/KD(IIb) in the table respectively represent the value obtained by dividing the KD value of each variant for FcγRIIaR by the KD value of each variant for FcγRIIb, and the value obtained by dividing the KD value of each variant for FcγRIIaH by the KD value of each variant for FcγRIIb. KD(IIb) of the parent polypeptide/KD(IIb) of the altered polypeptide refers to the value obtained by dividing the KD value of the parent polypeptide for FcγRIIb by the KD value of each variant for FcγRIIb.
row,Binder,KD of the stronger of FcγRIIaR/FcγRIIaH binding of the variant / that of the parent polypeptide
1,B1,0.7
2,B2,0.9
3,B3,0.9
4,B4,15.8

# Molecular target: T11, human FcγRIIIa(V) (human, UniProt P08637 17-208, limits assumed)
# T11 construct: also called hFcgRIIIa(V); allotype V158
# Assay: SPR, antibody captured by Protein L, human FcγR as analyte, pH 7.4, 25 C;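 note: biacore T100 or T200 with Protein L amine-coupled on a CM4 chip, FcγRs diluted in ACES saline with polysorbate 20, buffer-only injection as blank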
# T11 sequence (P08637 other isoform, or with tags, fused parts or gaps limits assumed): as above
row,Binder,BINDING AMOUNT (RU)
1,B7,1.2
2,B8,0.09
3,B9,-2.69
4,B10,-1.42
5,B11,-0.42
6,B12,-2.4
7,B13,-3.63
8,B14,-2.76

# Molecular target: T6, human FcγRIIa(R)
# Assay: as above
row,Binder,BINDING AMOUNT (RU)
1,B7,-0.12
2,B8,-0.23
3,B9,-1.14
4,B10,-0.15
5,B11,-0.33
6,B12,-1.17
7,B13,-1.59
8,B14,-1.48

# Molecular target: T7, human FcγRIIa(H)
# Assay: as above
row,Binder,BINDING AMOUNT (RU)
1,B7,-0.05
2,B8,-0.22
3,B9,-1.37
4,B10,-0.56
5,B11,-0.34
6,B12,-0.62
7,B13,-1.12
8,B14,-0.76

# Molecular target: T12, human FcγRIa (human, UniProt P12314 16-292, limits assumed)
# T12 construct: also called hFcgRIa; hFcgRI
# Assay: as above
# T12 sequence (P12314 16-292 limits assumed): as the sequence (P12314 16-292 limits assumed) above
row,Binder,BINDING AMOUNT (RU)
1,B7,-0.49
2,B8,-0.9
3,B9,-2.71
4,B10,-0.35
5,B11,-0.12
6,B12,-0.47
7,B13,-0.31
8,B14,-1.46

# Molecular target: T8, human FcγRIIb
# Assay: as above
row,Binder,BINDING AMOUNT (RU)
1,B7,-0.14
2,B8,0.63
3,B9,0.63
4,B10,-0.2
5,B11,-0.44
6,B12,1.46
7,B13,0.26
8,B14,-0.23
